Reference: the DeepSol protein solubility set

test: soluble on expression in E. coli; label from the status in PepcDB or PDB records

Row | Sequence | soluble on expression in E. coli
1 | MGSDKIHHHHHHLISTANITMQFGPEPLFENISAKFGNGNRYGLIGANGCGKSTFMKILSGALAPTSGNVSITPGLKVGTLSQDQFAFEQYTVIDAVIMGDVQLWKVKQERDAIYAKADMTEEDGMRVGDLESEFAEMDGYSAESRAGEILIEAGIEESFHYGPMSQVAPGWKLRVLLAQALFANPDILLLDEPTNNLDIHTISWLETELNKRKCTMIIISHDRHFLNAVCTHMADIDYGELRIYPGNYEYFLAQSSLLREQLLAGNAKKSAEIEELQDFVNRFGANASKAKQASSRAKRMDKIKLDEVKSSSRITPSIRFAAGKKMHRQALVLENLGHGFDGELLFQGGDLILEAGAKLAIIGENGVGKTTLLRCLVNELIHNEGTIKWSENASIGYCPQDSTSDFDNDLTIMEWMDQWRQPKHNDLMVRAMLGRLLFTEDDANKKAKNCSGGEKNRLIFGKLMMQDINVIIMDEPTNHMDMEAIEALNNALKDFEGTLIFVSHDREFVSSLATRIIDIKDKKLINFQGTFDEYLSSQADIMARQHA | not soluble
2 | GSEDTMDRINKDHDHTTSVASRFILADVITSTAFSNASGDINTYASSYIEYEVGVDNQLYYAEVRENEPSSSSTFNNSWNGIYSSLKNARIIIDQCGEGGRDHGNDVTRGMAEVMAAYNCALIADFFGDAPCSQAALVDEKGSPVYMTPKMDTQQEIYTQIISYLDDAIANLQKEDLADVTEQDFLYAGDADKWLKFAYGLKARYTMRLINRSSNKSADYEKVLDYVSKSFTSADDQAAFDIYDSNNINPFYGFYNSRAGFGASTSLGTKLLAYNDPRANRAFFTPIVDKKRSQVAANDPSLVPAPNGSPDQSTSKYGISAFVYAKTAPTLLMSYHELMFLKAEALCRLNRDAEDALKEAVVAGLLNAENSISIAIKELGSGLNTNSSEVITETSAGKYFDDVVKAKYAANPLQETMIQKYLAMWGASGEATETYNDFRRMKGLNENFITLTNPNNSSKFPLRYPYGNSDTAANPEVKAAYGNGDYVYSEPVWWAGGSR | soluble
3 | MYQASCLFYFMTPVFFLLSTYPRNLLIGDSSTAFTKELIAKMNEVTNSAESTSSKRPGRPRKDGHDEKIIDATLRLIDSNRPVTVNAVVKESGVSRAAVYRRWPGLVDLVAEALDAGRAPVEIDTSGDIKETLIDGLFTNQAKTTGVSYPRQRFRKRLELVMSDQELQLAAAALEHHHHHH | not soluble
4 | MGSDKIHHHHHHMPLYQPLTPRLFMRQWRASDLPCFARMNADRRVMRFFPASLTRRQSDAMAERCSMLIDSQGWGFWAVEERSSGLFAGMVGLHRPSGDLPFAPCVEVGWRLDPDHWGKGYATEAAAAALDIAFNTLGLHEVVAFTAVLNTPSQAVMRRLGMRHAMDFEHPAVPADSPLRAHCLYRTDKEEHQRRHGL | not soluble
5 | MSRLLSGGVGVIFAVLFSVNVGNARDQIQITGSSTVLPYQKIVAEIFGEIYPHFKIPVIESGGTGGGIKEFCRGIGENAIDIVNASRAMKLSELQSCFDAGVKDVEEIRIGYDGIVFATDINGPDWKLQPVDIYRALAARIMKDGKLQSNNVSKWSAVNSALPGWTIAAYIPGEKH | not soluble
6 | GSPNSPATGEKKECWSWESYLEEQKAITAPVSLFQDSQAVTHNKNGFKLGMKLEGIDPQHPSMYFILTVAEVCGYRLRLHFDGYSECHDFWVNANSPDIHPAGWFEKTGHKLQPPKGYKEEEFSWSQYLRSTRAQAAPKHLFVSQSHSPPPLGFQVGMKLEAVDRMNPSLVCVASVTDVVDSRFLVHFDNWDDTYDYWCDPSSPYIHPVGWCQKQGKPLTPPQDYPDPDNFCWEKYLEETGASAVPTWAFKVRPPHSFLVNMKLEAVDRRNPALIRVASVEDVEDHRIKIHFDGWSHGYDFWIDADHPDIHPAGWCSKTGHPLQPPLGPREPSSAVDSSGRIVTD | soluble
